Test results taken from patent US20250215104A1 (WALDEN BIOSCIENCES, published 2025).
Substitutions are numbered along the chain they refer to.

How the values were obtained:
[1] = target: T1, cynomolgus soluble urokinase plasminogen activator receptor (cynomolgus suPAR) (cynomolgus, UniProt Q9GK78 23-303, limits assumed); test: BLI (Octet) off-rate screen of scFv
T1 construct: also called cynomolgus uPAR; cynoPLAUR-His

[2] = target: T2, human soluble urokinase plasminogen activator receptor (hsuPAR) (human, UniProt Q03405 23-303, limits assumed); test: BLI (Octet) off-rate screen of scFv
T2 construct: also called human suPAR; rhuPAR-His

[3] = target: T3, cynomolgus soluble urokinase plasminogen activator receptor (suPAR) (cynomolgus, UniProt Q9GK78 23-303, limits assumed); test: BLI (Octet) off-rate screen of scFv clones
T3 construct: Column head says only 'cynomologus'; also called cynomolgus suPAR; cynomolgus uPAR

[4] = target: T4, human soluble urokinase plasminogen activator receptor (suPAR) (human, UniProt Q03405 23-303, limits assumed); test: BLI (Octet) off-rate screen of scFv clones
T4 construct: Column head says only 'human'; also called hsuPAR; human suPAR
T4 sequence (Q03405 23-303 limits assumed): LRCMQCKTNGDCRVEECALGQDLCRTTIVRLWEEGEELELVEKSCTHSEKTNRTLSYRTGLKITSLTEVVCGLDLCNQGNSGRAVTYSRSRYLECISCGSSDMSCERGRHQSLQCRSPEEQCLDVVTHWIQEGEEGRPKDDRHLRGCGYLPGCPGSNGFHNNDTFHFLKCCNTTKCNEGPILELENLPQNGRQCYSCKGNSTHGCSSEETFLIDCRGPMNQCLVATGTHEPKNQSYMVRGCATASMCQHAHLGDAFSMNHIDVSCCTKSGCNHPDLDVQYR

T1 sequence (Q9GK78 23-303 limits assumed): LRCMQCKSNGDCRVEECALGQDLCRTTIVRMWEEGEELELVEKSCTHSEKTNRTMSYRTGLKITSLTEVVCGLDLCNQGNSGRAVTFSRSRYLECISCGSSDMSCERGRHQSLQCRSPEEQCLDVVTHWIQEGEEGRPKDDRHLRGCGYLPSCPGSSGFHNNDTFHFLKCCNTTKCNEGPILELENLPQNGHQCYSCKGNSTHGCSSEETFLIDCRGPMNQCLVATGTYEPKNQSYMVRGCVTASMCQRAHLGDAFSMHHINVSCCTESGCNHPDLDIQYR
T3 sequence (Q9GK78 23-303 limits assumed): as above
T2 sequence (Q03405 23-303 limits assumed): as the sequence (Q03405 23-303 limits assumed) above

B1: suPAR_DB01_H07 (scFv, V domains shown)
VH: QVQLVQSGAEVKKPGASVKVSCKASGDTFSNYYMHWVRQAPGQGLEWMGWIDHENGSTIYAQKFQGRVTMTRDTSTSTVYMELSSLRSEDTAVYYCARGYDVDWFVYWGQGTLVTVSS
VL: DIQMTQSPSSLSASVGDRVTITCSARSSVSYMYWYQQKPGKAPKLLIYRTSNLASGVPSRFSGSGSGTDFTLTISSLQPEDFATYYCQQYHSYPPTFGGGTKVEIK
notes: Screened as scFv
B1 gave a koff [1] of 0.000219 s⁻¹ and a koff [2] of 0.00138 s⁻¹.

B2: suPAR_DB05_B12 (scFv, V domains shown)
VH: B1 VH with D27Y, S30T, H53P, S57N
VL: B1 VL with S27Q
notes: Screened as scFv
Work on B2 yielded a koff [3] of 0.000383 s⁻¹ and a koff [4] of 0.00472 s⁻¹.

B3: suPAR_DB01_H08 (scFv, V domains shown)
VH: QVQLVQSGAEVKKPGASVKVSCKASGFNIKDYYIHWVRQAPGQGLEWMGWIDPNGGGTQYAQKFQGRVTMTRDTSTSTVYMELSSLRSEDTAVYYCARGYDVDWFVYWGQGTLVTVSS
VL: B1 VL with S24R, R26S, A54Q
notes: Screened as scFv
B3 showed a koff [1] of 0.00038 s⁻¹ and a koff [2] of 0.00281 s⁻¹.

B4: suPAR_DB02_A10 (scFv, V domains shown)
VH: B1 VH with D27Y, S30T, N31G, Y32N, S57N, A61D, Y100S
VL: B1 VL
notes: Screened as scFv
Binder B4 has a koff [1] of 0.00024 s⁻¹ and a koff [2] of 0.00319 s⁻¹.

B5: suPAR_DB04_H06 (scFv, V domains shown)
VH: B1 VH with D27Y, S30T, M34V, S57N, I59S
VL: B1 VL with A54Q
notes: Screened as scFv
Binder B5 has a koff [3] of 0.000289 s⁻¹ and a koff [4] of 0.00926 s⁻¹.

B6: suPAR_DB04_H09 (scFv, V domains shown)
VH: B1 VH with D27G, N31G, M48V, D52T, H53P, E54D, N55S, S57A, I59A
VL: B1 VL with S27Q
notes: Screened as scFv
B6 was tested, and the koff [3] was 8.8e-05 s⁻¹ and the koff [4] was 0.00475 s⁻¹.

B7: suPAR_DB02_C04 (scFv, V domains shown)
VH: B3 VH with P53H, N54E, G57S, Q59S, A61D
VL: B1 VL
notes: Screened as scFv
B7 gave a koff [1] of 0.00132 s⁻¹ and a koff [2] of 0.00128 s⁻¹.

B8: suPAR_DB05_A10 (scFv, V domains shown)
VH: B1 VH with D27Y, S30T, M34I, H53P, E54S, S57N, A61D
VL: B1 VL
notes: Screened as scFv
In the case of B8, the koff [3] is reported as 0.000462 s⁻¹ and the koff [4] is reported as 0.00541 s⁻¹.

B9: suPAR_DB02_C01 (scFv, V domains shown)
VH: B1 VH with D27Y, S30T, N31G, H53P, A61D
VL: B1 VL with S24R, S27Q
notes: Screened as scFv
In the case of B9, the koff [1] is reported as 0.00025 s⁻¹ and the koff [2] is reported as 0.00465 s⁻¹.

B10: suPAR_DB01_H10 (scFv, V domains shown)
VH: B1 VH with D27Y, S30T
VL: B1 VL with S27Q
notes: Screened as scFv
For B10, the koff [1] was 0.000374 s⁻¹ and the koff [2] was 0.000603 s⁻¹.

B11: suPAR_DB02_B10 (scFv, V domains shown)
VH: B1 VH with D27Y, S30T, H53P, S57N, I59S, A61D
VL: B1 VL with S24R, S27Q
notes: Screened as scFv
With B11 the koff [1] was 0.000434 s⁻¹ and the koff [2] was 0.00189 s⁻¹.

B12: suPAR_DB04_H05 (scFv, V domains shown)
VH: B1 VH with D27H, F29L, S30N, N31S, H53P, N55G, S57N
VL: B1 VL
notes: Screened as scFv
Work on B12 yielded a koff [3] of 0.000182 s⁻¹ and a koff [4] of 0.00584 s⁻¹.

B13: suPAR_DB05_A06 (scFv, V domains shown)
VH: B1 VH with D27Y, S30T, N31S, Y32H, M34V, S57N, A61D
VL: B1 VL
notes: Screened as scFv
Work on B13 yielded a koff [3] of 0.000277 s⁻¹ and a koff [4] of 0.00352 s⁻¹.

B14: suPAR_DB02_B04 (scFv, V domains shown)
VH: B1 VH with D27Y, S30T, N31G, Y32H, S57N, A61D
VL: B1 VL
notes: Screened as scFv
With B14 the koff [1] was 0.000185 s⁻¹ and the koff [2] was 0.00477 s⁻¹.

B15: suPAR_DB02_A04 (scFv, V domains shown)
VH: B1 VH with D27Y, S30T, N31G, M34V, S57N, A61D
VL: B1 VL with S24R, R26S
notes: Screened as scFv
B15 showed a koff [1] of 0.000521 s⁻¹ and a koff [2] of 0.00236 s⁻¹.

B16: suPAR_DB02_A08 (scFv, V domains shown)
VH: B1 VH with D27Y, S30T, N31T, H53P, S57N
VL: B1 VL
notes: Screened as scFv
For B16, the koff [1] was 7.98e-05 s⁻¹ and the koff [2] was 0.00363 s⁻¹.

B17: suPAR_DB02_B03 (scFv, V domains shown)
VH: B1 VH with D27Y, S30I, N31G, Y32N, M34I, A61D, Y100S
VL: B1 VL
notes: Screened as scFv
With B17 the koff [1] was 0.000424 s⁻¹ and the koff [2] was 0.00088 s⁻¹.

B18: suPAR_DB02_A05 (scFv, V domains shown)
VH: B1 VH with S30T, N31S, H53P, S57N
VL: B1 VL with S27Q
notes: Screened as scFv
With B18 the koff [1] was 0.000151 s⁻¹ and the koff [2] was 0.00521 s⁻¹.

B19: suPAR_DB02_C05 (scFv, V domains shown)
VH: B1 VH with D27G, N31S, S57N, A61D
VL: B1 VL
notes: Screened as scFv
In the case of B19, the koff [1] is reported as 0.000285 s⁻¹ and the koff [2] is reported as 0.00504 s⁻¹.

B20: suPAR_DB02_A03 (scFv, V domains shown)
VH: B1 VH with D27Y, S30T, N31D, M34I, H53P, S57N
VL: B1 VL
notes: Screened as scFv
Work on B20 yielded a koff [1] of 0.000341 s⁻¹ and a koff [2] of 0.00198 s⁻¹.

B21: suPAR_DB04_H03 (scFv, V domains shown)
VH: B1 VH with D27Y, S30T, N31G, Y32N, M34L, E54S, A61D, Y100S
VL: B1 VL with R26S
notes: Screened as scFv
B21 was tested, and the koff [3] was 0.000226 s⁻¹ and the koff [4] was 0.00134 s⁻¹.

B22: suPAR_DB05_A11 (scFv, V domains shown)
VH: B1 VH with D27Y, S30T, N31G, H53P, E54N, N55S, S57G, I59N
VL: B1 VL
notes: Screened as scFv
In the case of B22, the koff [3] is reported as 0.000311 s⁻¹ and the koff [4] is reported as 0.0018 s⁻¹.

B23: suPAR_DB02_C02 (scFv, V domains shown)
VH: B1 VH with D27Y, S30K, N31S, S57N, A61D, R98S
VL: B1 VL
notes: Screened as scFv
B23 showed a koff [1] of 3.58e-05 s⁻¹ and a koff [2] of 0.00429 s⁻¹.

B24: suPAR_DB02_B05 (scFv, V domains shown)
VH: B1 VH with D27Y, S30T, N31S, S57N, I59S
VL: B1 VL with S24R, S27Q
notes: Screened as scFv
B24 showed a koff [1] of 0.000199 s⁻¹ and a koff [2] of 0.0041 s⁻¹.

B25: suPAR_DB02_A09 (scFv, V domains shown)
VH: B1 VH with D27Y, S30T, H53P, N55G, A61D
VL: B1 VL with S27Q, V29I
notes: Screened as scFv
B25 gave a koff [1] of 0.000484 s⁻¹ and a koff [2] of 0.00613 s⁻¹.

B26: suPAR_DB02_B09 (scFv, V domains shown)
VH: B1 VH with D27Y, S30T, N31G, M34V, E54S, S57N, A61D, R98S
VL: B1 VL
notes: Screened as scFv
In the case of B26, the koff [1] is reported as 0.000208 s⁻¹ and the koff [2] is reported as 0.00422 s⁻¹.

B27: suPAR_DB05_A08 (scFv, V domains shown)
VH: B1 VH with D27Y, S30T, H53S, E54N, N55S, S57G, I59N
VL: B1 VL
notes: Screened as scFv
B27 gave a koff [3] of 9.8e-05 s⁻¹ and a koff [4] of 0.00307 s⁻¹.

B28: suPAR_DB02_A11 (scFv, V domains shown)
VH: B1 VH with D27G, N31S, H53P, E54S, S57N, A61D
VL: B1 VL with S27Q
notes: Screened as scFv
B28 was tested, and the koff [1] was 0.000232 s⁻¹ and the koff [2] was 0.00447 s⁻¹.

B29: suPAR_DB05_A07 (scFv, V domains shown)
VH: B1 VH with D27Y, S30T, H35Q, S57N
VL: B1 VL with S27Q
notes: Screened as scFv
B29 gave a koff [3] of 0.00029 s⁻¹ and a koff [4] of 0.00495 s⁻¹.

B30: suPAR_DB02_B07 (scFv, V domains shown)
VH: B1 VH with D27H, N31S, H53P, S57N
VL: B1 VL with S27Q, V29I
notes: Screened as scFv
B30 gave a koff [1] of 8.12e-05 s⁻¹ and a koff [2] of 0.00447 s⁻¹.

B31: suPAR_DB02_A12 (scFv, V domains shown)
VH: B1 VH with D27Y, S30T, V102M
VL: B1 VL
notes: Screened as scFv
In the case of B31, the koff [1] is reported as 2.26e-05 s⁻¹ and the koff [2] is reported as 0.0017 s⁻¹.

B32: suPAR_DB02_A07 (scFv, V domains shown)
VH: B3 VH with F27Y, D52S, N54D, G55S, G57V, Q59N
VL: B1 VL with S27Q
notes: Screened as scFv
Work on B32 yielded a koff [1] of 0.000352 s⁻¹ and a koff [2] of 0.00114 s⁻¹.

B33: suPAR_DB02_B01 (scFv, V domains shown)
VH: B1 VH with D27Y, S30T, N31G, Y32H, M34V, S57N, A61D
VL: B1 VL with S27Q
notes: Screened as scFv
With B33 the koff [1] was 0.000363 s⁻¹ and the koff [2] was 0.00253 s⁻¹.

B34: suPAR_DB04_H08 (scFv, V domains shown)
VH: B1 VH with D27Y, N31D, M34I, D52S, H53P, E54K, N55S, S57V, I59N
VL: B1 VL with R26S, S27Q
notes: Screened as scFv
With B34 the koff [3] was 5.42e-07 s⁻¹ and the koff [4] was 0.0034 s⁻¹.

B35: suPAR_DB05_A05 (scFv, V domains shown)
VH: B1 VH with D27Y, S30T, H53P, E54S, N55G, I59S
VL: B1 VL with S24R, S27Q
notes: Screened as scFv
B35 gave a koff [3] of 0.000639 s⁻¹ and a koff [4] of 0.00553 s⁻¹.

B36: suPAR_DB04_H10 (scFv, V domains shown)
VH: B1 VH with D27Y, S30T, N31S, D52S, H53P, E54D, N55S, S57G, I59N
VL: B1 VL with S24R
notes: Screened as scFv
B36 was tested, and the koff [3] was 0.000323 s⁻¹ and the koff [4] was 0.00354 s⁻¹.

B37: suPAR_DB02_B06 (scFv, V domains shown)
VH: B1 VH with S30T, N31S, N55G, K63Q
VL: B1 VL
notes: Screened as scFv
B37 gave a koff [1] of 0.000127 s⁻¹ and a koff [2] of 0.00353 s⁻¹.

B38: suPAR_DB02_B08 (scFv, V domains shown)
VH: B1 VH with D27Y, T28S, S30T, I59S, A61D
VL: B1 VL
notes: Screened as scFv
B38 showed a koff [1] of 8.61e-05 s⁻¹ and a koff [2] of 0.00155 s⁻¹.

B39: suPAR_DB04_H07 (scFv, V domains shown)
VH: B1 VH with D27Y, S30T, N31S, S57N, I59S, A61D
VL: B1 VL with S24R
notes: Screened as scFv
With B39 the koff [3] was 0.000249 s⁻¹ and the koff [4] was 0.00511 s⁻¹.
